In assay [1] the target is T1, native human CD22 (hCD22) (human, UniProt P20273 20-847).
T1 construct: On Raji and Ramos Burkitt lymphoma cells (Scatchard analysis, flow cytometry) and on mouse L cells transfected with full-length CD22 cDNA (hybridoma screen)
Kind of assay: hybridoma screen on CD22-transfected mouse L cells. The text has this:
Monoclonal antibodies (mAbs) HB22-7 (IgG2b), HB22-23 (IgG2a), HB22-33 (IgM), HB22-5 (IgG2a), HB22-13 (IgG2a), HB22-22 (IgA), and HB22-196 were produced according to the method of Engel et al., J Immunol 15:4710 (1993) and U.S. Pat. No. 5,484,892. See, also Tuscano et al, Blood 94:1382-1392 (1999). However, other methods may be used. Briefly, the HB22 mAbs were produced via hybridoma techniques using a mouse pre-B cell line 300.19, stably transfected with full length CD22 cDNA, as the immunogen. More specifically, thirty-three mAbs reactive with CD22 were generated by the fusion of NS-1 myeloma cell with spleen cells from Balb/c mice immunized three times with a mouse pre-B cell line, 300.19, stably transfected with a full-length CD22 cDNA. Hybridomas producing mAb reactive with mouse L cells transfected with CD22 cDNA, but not with untransfected cells, were cloned twice and used to generate supernatant or ascites fluid. mAb isotypes were determined using the Mouse Monoclonal Antibody Isotyping Kit (Amersham, Arlington Heights, Ill.). IgGmAb were purified using the Affi-Gel Protein A MAPS II Kit (Bio-Rad, Richmond, Calif.).

Assay [2] deals with T1, native human CD22 (hCD22). Briefly: Scatchard analysis, Raji against Ramos cells. As for the experimental part:
Cell lines and Scatchard Analysis. Raji and Ramos Burkitt lymphoma, cell lines were purchased from American Type Culture Collection (ATCC, Manassas, Va.). Both cell lines stained for CD22 expression by flow cytometric methods utilizing the HB22-7 mAb, as described previously (Tuscano et al., supra). The cell lines were maintained in RPMI 1640 supplemented with 10% fetal calf serum at 0.5 times. 10⁶ cells/ml. A Scatchard analysis using Raji and Ramos cells was performed as described previously (Scatchard, G., Ann. of NY Acad Sci. 51:660 (1947)). Briefly, HB22-7 was labeled with ¹²⁵ I by the chloramine T method (specific activity of […]). A competitive binding assay was performed utilizing serially diluted, unlabeled HB22-7.
Scatchard analysis was utilized to assess the binding affinity of HB22-7 and the number of CD22 receptors on Ramos and Raji cells. The cells were assayed for maximum, binding percentage (Bmax), disassociation constant (Ka) and number of antibodies bound per cell. The results shown in Table 1 are the average of two experiments.

T1 sequence (P20273 other isoform, or with tags, fused parts or gaps limits assumed): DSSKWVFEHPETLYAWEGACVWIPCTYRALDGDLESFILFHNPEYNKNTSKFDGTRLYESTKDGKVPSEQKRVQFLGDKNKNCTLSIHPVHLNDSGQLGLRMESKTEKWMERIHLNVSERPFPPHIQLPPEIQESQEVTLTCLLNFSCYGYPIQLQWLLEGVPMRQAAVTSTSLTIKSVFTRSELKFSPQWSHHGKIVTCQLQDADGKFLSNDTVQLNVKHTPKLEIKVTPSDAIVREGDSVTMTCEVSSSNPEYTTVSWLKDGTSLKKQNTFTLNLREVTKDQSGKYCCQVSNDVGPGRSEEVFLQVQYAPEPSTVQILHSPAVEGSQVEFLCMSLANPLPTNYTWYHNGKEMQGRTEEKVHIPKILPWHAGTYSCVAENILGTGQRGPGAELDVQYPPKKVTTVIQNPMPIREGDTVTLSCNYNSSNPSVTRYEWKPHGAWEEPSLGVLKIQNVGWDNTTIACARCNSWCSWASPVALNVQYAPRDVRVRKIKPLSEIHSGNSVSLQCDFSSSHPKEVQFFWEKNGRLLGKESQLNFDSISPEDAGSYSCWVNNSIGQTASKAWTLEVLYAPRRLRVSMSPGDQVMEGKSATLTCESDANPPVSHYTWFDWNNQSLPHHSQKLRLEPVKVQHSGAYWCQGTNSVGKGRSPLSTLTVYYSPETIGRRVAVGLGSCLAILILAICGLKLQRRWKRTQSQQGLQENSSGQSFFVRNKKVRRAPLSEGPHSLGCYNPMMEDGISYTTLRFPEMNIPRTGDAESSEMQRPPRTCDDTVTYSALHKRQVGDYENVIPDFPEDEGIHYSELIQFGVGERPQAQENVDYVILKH

B1: anti-CD22 monoclonal antibody HB22-33 (antibody, V domains shown)
VH: EVQLQESGPGLVKPSQSLSLTCSVTGYSITSGYYWNWIRQFPGNKLEWMGYIRYDGSNNYNPSLKNRISITRDTSKNQFFLKLNSVTTEDTATYYCARGGITVAMDYWGQGTSVTVSS
VL: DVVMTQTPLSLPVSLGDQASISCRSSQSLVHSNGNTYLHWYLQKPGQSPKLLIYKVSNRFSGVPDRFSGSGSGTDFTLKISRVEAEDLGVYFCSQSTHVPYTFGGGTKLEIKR
For B1, the binding result in assay [1] is recorded as “binds”.

B2: anti-CD22 monoclonal antibody HB22-5 (antibody, V domains shown)
VH: EVQLQESGPELVKPGASMKISCKASGYSFTDYTMNWVKQSHGKNLEWIGLLHPFNGGTSYNQKFKGKATLSVDKSSSTAFMELLSLTSEDSAVYFCARGTGRNYAMDYWGQGTSVTVSS
VL: SIVMTQTPKFLLVSTGDRVTITCKASQTVTNDLAWYQQKPGQSPKLLIYYASNRYTGVPDRFTGSGYGTDFTFTINTVQAEDLAVYFCQQDYSSPLTFGAGTKLELKR
Consider B2, for which the binding result in assay [1] is “binds”.

B3: anti-CD22 monoclonal antibody HB22-7 (antibody, V domains shown)
VH: EVQLQESGPGLVAPSQSLSITCTVSGFSLSDYGVNWVRQIPGKGLEWLGIIWGDGRTDYNSALKSRLNISKDNSKSQVFLKMNSLKADDTARYYCARAPGNRAMEYWGQGTSVTVSS
VL: SIVMTQTPKFLLVSAGDRITLTCKASQSVTNDVAWYQQKPGQSPKLLIYYASNRYTGVPDRFTGSGYGTDFTFTISTVQAEDLAVYFCQQDYRSPWTFGGGTKLEIKR
notes: Labelled with 125I for the Scatchard assay; also called HB11347; anti-CD22 mAb
Take B3: in assay [2], the “fold increase in Ka, Raji cells versus Ramos cells” value was determined as 2 fold; the “fold increase in antibodies bound per cell and Bmax, Raji cells versus Ramos cells” value was about 2.5 fold.

B4: anti-CD22 monoclonal antibody HB22-13 (antibody, V domains shown)
VH: EVQLQESGGGLVQPGGSLRLSCATSGFTFIDYYMNWVRQPPGKALEWLGFIKNKFNGYTTEYNTSVKGRFTISRDNSQSILYLQMNTLRAEDSATYYCARGLGRSYAMDYWGQGTSVTVSS
VL: SIVMTQTPKFLLVSAGDRVSITCKASQSVTNDVTWYQQKPGQSPKLLIYFASNRYTGVPDRFTGSGYGTDFTFTISTVQAEDLAVYFCQQDYSSPLTFGAGTKLELKR
For B4, in assay [1], the binding result is recorded as “binds”.

The values are drawn from patent publication US20120301472A1 (DUKE UNIVERSITY, published 2012).
